Assay results as given in paper PMC11246345.

Key:
[1] = biological target: VEGF-A 189; assay: ELISA
[2] = biological target: VEGF-A 165; assay: ELISA

%relative binding activity (against a reference standard) [1]: 97% | %relative binding activity (against a reference standard) [2]: 97%
Substance: US-aflibercept (Fc fusion)
